Numbering of substitutions follows the chain as printed.
How the values were obtained:
[1] = molecular target: T1, human CD47 extracellular domain (human, UniProt Q08722 19-139); experiment: column HUMAN CD47 KD (µM); no assay named on the sheet, SPR with the CD47 ECD per Example 4
T1 construct: extracellular domain; also called human CD47 ECD; Hu CD47

[2] = molecular target: T2, human CD47 on cells (human, UniProt Q08722 19-323); experiment: cell-based or functional assay
[3] = molecular target: T1, human CD47 extracellular domain; experiment: method not given; human CD47, form not stated there
[4] = molecular target: T2, human CD47 on cells; experiment: blocking of human SIRPα binding to OCI-Ly3 cells; competitor SIRPα; TPP-23, parental high-affinity anti-CD47 IgG1; OCI-Ly3 cells

T2 sequence (Q08722 19-323): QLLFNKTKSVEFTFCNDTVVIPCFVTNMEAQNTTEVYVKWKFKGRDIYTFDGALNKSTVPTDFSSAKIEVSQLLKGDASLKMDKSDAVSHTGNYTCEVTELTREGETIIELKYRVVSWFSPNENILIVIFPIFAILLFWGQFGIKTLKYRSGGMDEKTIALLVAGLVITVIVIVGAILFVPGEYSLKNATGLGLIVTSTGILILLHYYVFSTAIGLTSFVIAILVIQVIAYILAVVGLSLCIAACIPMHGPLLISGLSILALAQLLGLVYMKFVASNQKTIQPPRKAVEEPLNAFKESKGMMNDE
T1 sequence (Q08722 19-139 limits assumed): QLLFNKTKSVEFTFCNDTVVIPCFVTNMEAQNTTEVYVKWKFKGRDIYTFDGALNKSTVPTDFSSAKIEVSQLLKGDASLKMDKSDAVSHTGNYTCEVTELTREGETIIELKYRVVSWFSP

B1: TPP-1361 (bispecific antibody, human IgG1, kappa)
light 1: NIQMTQSPSSLSASVGDRVTITCQASQDIHRYLSWFQQDPGTVPQHLIYRESRFVDGVPSRFSGSGSGTEFTLTISSLQPEDFATYYCLQYDEFPYTFGGGTKVEIKRTVAAPSVFIFPPSDEELKSGTASVVCWLNNFYPREAKVQWKVDNALQSGNSEESVTEQDSKDSTYSLSSTLELSKADYEKHKVYACEVTHQGLSSPVTKSFNRGEC
heavy 1: QMQLVQSGAEVKKPGSSVKVSCKASGFNIKDYYLHWVRQAPGQGLEWMGWIDPDQGDTYYAQKFQGRVTITRDRSTSTAYMELASLTAEDTAVYYCNAAYGESSYPMDYWGQGTLVTVSSASTKGPSVFPLAPSSKSTSGGTAALGCLVKDYFPEPVTVSWNSGALTSGVHTFPAVLKSSGLYSLSSVVTVPSSSLGTQTYICNVNHKPSNTKVDKKVEPKSCDKTHTCPPCPAPELLGGPSVFLFPPKPKDTLMISRTPEVTCVVVDVSHEDPEVKFNWYVDGVEVHNAKTKPREEQYNSTYRVVSVLTVLHQDWLNGKEYKCKVSNKALPAPIEKTISKAKGQPREPQVYVLPPSREEMTKNQVSLLCLVKGFYPSDIAVEWESNGQPENNYLTWPPVLDSDGSFFLYSKLTVDKSRWQQGNVFSCSVMHEALHNHYTQKSLSLSPGK
light 2: QIVLSQSPAILSASPGEKVTMTCRASSSVSYIHWFQQKPGSSPKPWIYATSNLASGVPVRFSGSGSGTSYSLTISRVEAEDAATYYCQQWTSNPPTFGGGTKLEIKRTVAAPSVAIFPPSDERLKSGTASVVCVLNNFYPREAKVQWKVDNALQSGNSQESVTEQDSKDSTYSLSSRLTLSKADYEKHKVYACEVTHQGLSSPVTKSFNRGEC
heavy 2: QVQLQQPGAELVKPGASVKMSCKASGYTFTSYNMHWVKQTPGRGLEWIGAIYPGNGDTSYNQKFKGKATLTADKSSSTAYMQLSSLTSEDSAVYYCARSTYYGGDWYFNVWGAGTTVTVSAASTKGPSVFPLAPSSKSTSGGTAWLGCEVTDYFPEPVTVSWNSGALTSGVHTFPAVLESSGLYSLSSVVTVPSSSLGTQTYICNVNHKPSNTKVDKKVEPKSCDKTHTCPPCPAPELLGGPSVFLFPPKPKDTLMISRTPEVTCVVVDVSHEDPEVKFNWYVDGVEVHNAKTKPREEQYNSTYRVVSVLTVLHQDWLNGKEYKCKVSNKALPAPIEKTISKAKGQPREPQVYVYPPSREEMTKNQVSLTCLVKGFYPSDIAVEWESNGQPENNYKTTPPVLDSDGSFALVSKLTVDKSRWQQGNVFSCSVMHEALHNHYTQKSLSLSPGK
notes: Four-chain IgG1 heterodimer; also called CD47xCD20 bispecific
For B1, the Kd [1] was 2530 nM, the “EC50 of macrophage phagocytosis of OCI-Ly3 cells, OCI-Ly3 Mφ EC50 (µg/mL) REPEAT” value [2] was 0.45 µg/mL and the “EC50 of macrophage phagocytosis of OCI-Ly3 cells, column OCI-Ly3 Mφ EC50” value [2] was 0.5 µg/mL.

B2: TPP-1367 (bispecific antibody, human IgG1, kappa)
anti-CD47 light chain: B1 light 1 with Q24R, D39K, T42K, Q45K, E51A, S52N, F54L, D56S
anti-CD47 heavy chain: B1 heavy 1 with Q43K, A84R, T87R
anti-CD20 light chain: B1 light 2
anti-CD20 heavy chain: B1 heavy 2
notes: IgG1 1+1 heterodimer; also called CD47/CD20 TPP1367; CD47xCD20 bispecific
With B2 the Kd [1] was 430 nM, the “EC50 of macrophage phagocytosis of OCI-Ly3 cells, OCI-Ly3 Mφ EC50 (µg/mL) REPEAT” value [2] was 0.046 µg/mL and the “EC50 of macrophage phagocytosis of OCI-Ly3 cells, column OCI-Ly3 Mφ EC50” value [2] was 0.064 µg/mL.

B3: CC-90002 (antibody, V domains shown)
VH: QMQLVQSGAEVKKTGSSVKVSCKASGFNIKDYYLHWVRQAPGQALEWMGWIDPDQGDTEYAQKFQDRVTITRDRSMSTAYMELSSLRSEDTAMYYCNAAYGSSSYPMDYWGQGTTVTVSS
VL: NIQMTQSPSAMSASVGDRVTITCKASQDIHRYLSWFQQKPGKVPKHLIYRANRLVSGVPSRFSGSGSGTEFTLTISSLQPEDFATYYCLQYDEFPYTFGGGTKVEIK
notes: also called anti-CD47 monoclonal antibody CC-90002
A Kd [3] of 0.54 nM was found for B3 in this work.

B4: TPP-23 (408_437 Fab with IgG1) (antibody, V domains shown)
VH: B3 VH with T14P, Q43K, A44G, D66G, M76T, S84R, S88A, M93V, T115L
VL: B3 VL with A10S, M11L, K24R
notes: The crystal structure was made with an anti-CD47 Fab of this antibody; also called parental CD47 mAb
An IC50 [4] of 0.11 nM was found for B4 in this work.
